According to US20120316071A1 (published 2012):
Where two headings read alike, the source gives them in different places.

Columns and labels:
[1] = target: T1, Recombinant Human DLL4 (delta-like protein 4) (human, UniProt Q9NR61 27-529); assay: ECL (MSD) multispot assay; Fab 0.01 µM
T1 construct: Bought recombinant protein (R&D Systems Cat#1506-D4/CF); also called rHuman DLL4; Delta-like 4

[2] = target: T1, Recombinant Human DLL4 (delta-like …); assay: ECL (MSD) multispot assay; Fab 0.1 µM
[3] = target: T2, Recombinant Human DLL4 (delta-like protein 4) (human, UniProt Q9NR61 27-529); assay: ELISA on coated DLL4, 100 nM Fab
T2 construct: Bought recombinant human DLL4 (R&D Systems Cat#1506-D4/CF), coated on the plate; also called rHuman DLL4; Delta-like 4

[4] = target: T2, Recombinant Human DLL4 (delta-like …); assay: 96-well plate ECL (MSD) binding assay on coated DLL4, 10 nM Fab
[5] = target: T3, Recombinant Human DLL4 (delta-like protein 4) (human, UniProt Q9NR61 27-524); assay: ELISA on plate-coated DLL4, 100 nM Fab, signal minus noise
T3 construct: Bought recombinant protein (R&D Systems Cat#1506-D4/CF); also called rHuman DLL4; Delta-like 4

[6] = target: T3, Recombinant Human DLL4 (delta-like …); assay: ECL (MSD) multispot binding assay, DLL4 immobilised, 10 nM Fab, DLL4 signal over blank
[7] = target: T2, Recombinant Human DLL4 (delta-like …); assay: ELISA on coated DLL4, 100 nM Fab; remark: listed apart in the source

Row | Binder | ELISA signal [3] | ECL signal [4] | ELISA (Signal-Noise) [5] | Signal/Noise [10 nM Fab] [6] | other results
1 | Fab VH1-46_IGHD6-6*01_IGHJ1*01 & L6_IGKJ1*01 (Fab, V domains shown, Germline 'Hit' Fab; The VH was cloned into Plasmid A (CH1, His6 and Flag tags) and the kappa VL into Plasmid C (kappa CL); expressed in E. coli; also called Parent; parental) VH: QVQLVQSGAEVKKPGASVKVSCKASGYTFTSYYMHWVRQAPGQGLEWMGIINPSGGSTSYAQKFQGRVTMTRDTSTSTVYMELSSLRSEDTAVYYCAREEYSSSSAEYFQHWGQGTLVTVSS VL: not shown | – | – | – | – | ECL signal [1]: 1030; Signal/Noise [1]: 4.9; ECL signal [2]: 7000; Signal/Noise [2]: 40.9
2 | Fab VH1-46_IGHD6-6*01_IGHJ1*01 S102A/S103P/S104F/H111F/I51Y/N52L/S54T/G56H (APFF YLTH) & L6_IGKJ1*01 (Fab, V domains shown, Fab made in E. coli; CH1 with tags and kappa CL are not included) VH: QVQLVQSGAEVKKPGASVKVSCKASGYTFTSYYMHWVRQAPGQGLEWMGIYLPTGHSTSYAQKFQGRVTMTRDTSTSTVYMELSSLRSEDTAVYYCAREEYAPFSAEYFQFWGQGTLVTVSS VL: not shown | 0.513 | 155000 | – | – | –
3 | Fab VH1-46_IGHD6-6*01_IGHJ1*01 S102A/S103P/S104F/H111F I51A & L6_IGKJ1*01 (Fab, V domains shown, Fab made in E. coli: CH1 with His6/Flag tags from Plasmid A, kappa constant region from Plasmid C; also called APFF I51A) VH: QVQLVQSGAEVKKPGASVKVSCKASGYTFTSYYMHWVRQAPGQGLEWMGIANPSGGSTSYAQKFQGRVTMTRDTSTSTVYMELSSLRSEDTAVYYCAREEYAPFSAEYFQFWGQGTLVTVSS VL: not shown | – | – | 0.49 | 637 | –
4 | Fab VH1-46_IGHD6-6*01_IGHJ1*01 S102A/S103P/S104F/H111F S54A & L6_IGKJ1*01 (Fab, V domains shown, Fab made in E. coli; CH1 with tags and kappa CL are not included; also called APFF S54A; H:APFF S54A) VH: QVQLVQSGAEVKKPGASVKVSCKASGYTFTSYYMHWVRQAPGQGLEWMGIINPAGGSTSYAQKFQGRVTMTRDTSTSTVYMELSSLRSEDTAVYYCAREEYAPFSAEYFQFWGQGTLVTVSS VL: not shown | – | – | – | – | ELISA signal [7]: 0.02
5 | Fab VH1-46_IGHD6-6*01_IGHJ1*01 S102A/S103P/S104F/H111F G55A & L6_IGKJ1*01 (Fab, V domains shown, Fab made in E. coli: CH1 with His6/Flag tags from Plasmid A, kappa constant region from Plasmid C; also called APFF G55A) VH: QVQLVQSGAEVKKPGASVKVSCKASGYTFTSYYMHWVRQAPGQGLEWMGIINPSAGSTSYAQKFQGRVTMTRDTSTSTVYMELSSLRSEDTAVYYCAREEYAPFSAEYFQFWGQGTLVTVSS VL: not shown | – | – | 0.02 | 44.2 | –
6 | Fab VH1-46_IGHD6-6*01_IGHJ1*01 S102A/S103P/S104F/H111F I50A & L6_IGKJ1*01 (Fab, V domains shown, Fab made in E. coli: CH1 with His6/Flag tags from Plasmid A, kappa constant region from Plasmid C; also called APFF I50A) VH: QVQLVQSGAEVKKPGASVKVSCKASGYTFTSYYMHWVRQAPGQGLEWMGAINPSGGSTSYAQKFQGRVTMTRDTSTSTVYMELSSLRSEDTAVYYCAREEYAPFSAEYFQFWGQGTLVTVSS VL: not shown | – | – | 0.01 | 9.8 | –
7 | Fab VH1-46_IGHD6-6*01_IGHJ1*01 S103A & L6_IGKJ1*01 (Fab, V domains shown, Fab; The VH was cloned into Plasmid A (CH1, His6 and Flag tags) and the kappa VL into Plasmid C (kappa CL); expressed in E. coli) VH: QVQLVQSGAEVKKPGASVKVSCKASGYTFTSYYMHWVRQAPGQGLEWMGIINPSGGSTSYAQKFQGRVTMTRDTSTSTVYMELSSLRSEDTAVYYCAREEYSASSAEYFQHWGQGTLVTVSS VL: not shown | – | – | – | – | ECL signal [1]: 1190; Signal/Noise [1]: 4.5; ECL signal [2]: 7110; Signal/Noise [2]: 31.6
8 | Fab VH1-46_IGHD6-6*01_IGHJ1*01 S102A/S103P/S104F/H111F/I51N/N52L/S54T/G56H (APFF NLTH) & L6_IGKJ1*01 (Fab, V domains shown, Fab made in E. coli; CH1 with tags and kappa CL are not included) VH: QVQLVQSGAEVKKPGASVKVSCKASGYTFTSYYMHWVRQAPGQGLEWMGINLPTGHSTSYAQKFQGRVTMTRDTSTSTVYMELSSLRSEDTAVYYCAREEYAPFSAEYFQFWGQGTLVTVSS VL: not shown | 1.09 | 126000 | – | – | –
9 | Fab VH1-46_IGHD6-6*01_IGHJ1*01 S103P & L6_IGKJ1*01 (Fab, V domains shown, Fab; The VH was cloned into Plasmid A (CH1, His6 and Flag tags) and the kappa VL into Plasmid C (kappa CL); expressed in E. coli) VH: QVQLVQSGAEVKKPGASVKVSCKASGYTFTSYYMHWVRQAPGQGLEWMGIINPSGGSTSYAQKFQGRVTMTRDTSTSTVYMELSSLRSEDTAVYYCAREEYSPSSAEYFQHWGQGTLVTVSS VL: not shown | – | – | – | – | ECL signal [1]: 4100; Signal/Noise [1]: 22.9; ECL signal [2]: 19300; Signal/Noise [2]: 139
10 | Fab VH1-46_IGHD6-6*01_IGHJ1*01 S102A/S103P/S104F/H111F/I51G/N52L/S54T/G56H (APFF GLTH) & L6_IGKJ1*01 (Fab, V domains shown, Fab made in E. coli; CH1 with tags and kappa CL are not included) VH: QVQLVQSGAEVKKPGASVKVSCKASGYTFTSYYMHWVRQAPGQGLEWMGIGLPTGHSTSYAQKFQGRVTMTRDTSTSTVYMELSSLRSEDTAVYYCAREEYAPFSAEYFQFWGQGTLVTVSS VL: not shown | 0.407 | 131000 | – | – | –
11 | Fab VH1-46_IGHD6-6*01_IGHJ1*01 S102A/S103P/S104F/H111F/N52L/S54T/G56H (APFF LTH) & L6_IGKJ1*01 (Fab, V domains shown, Fab made in E. coli; CH1 with tags and kappa CL are not included; also called H:APFF LTH & L:wt) VH: QVQLVQSGAEVKKPGASVKVSCKASGYTFTSYYMHWVRQAPGQGLEWMGIILPTGHSTSYAQKFQGRVTMTRDTSTSTVYMELSSLRSEDTAVYYCAREEYAPFSAEYFQFWGQGTLVTVSS VL: not shown | 1.1 | 165000 | – | – | –

Now from value to binder, other results behind:

Row | ELISA signal [3] | ECL signal [4] | ELISA (Signal-Noise) [5] | Signal/Noise [10 nM Fab] [6] | Binder | other results
12 | – | – | 0.6 | 721 | Fab VH1-46_IGHD6-6*01_IGHJ1*01 S102A/S103P/S104F/H111F N52A & L6_IGKJ1*01 (Fab, V domains shown, Fab made in E. coli: CH1 with His6/Flag tags from Plasmid A, kappa constant region from Plasmid C; also called APFF N52A) VH: QVQLVQSGAEVKKPGASVKVSCKASGYTFTSYYMHWVRQAPGQGLEWMGIIAPSGGSTSYAQKFQGRVTMTRDTSTSTVYMELSSLRSEDTAVYYCAREEYAPFSAEYFQFWGQGTLVTVSS VL: not shown | –
13 | – | – | 1.6 | 442 | Fab VH1-46_IGHD6-6*01_IGHJ1*01 S102A/S103P/S104F/H111F G56A & L6_IGKJ1*01 (Fab, V domains shown, Fab made in E. coli: CH1 with His6/Flag tags from Plasmid A, kappa constant region from Plasmid C; also called APFF G56A) VH: QVQLVQSGAEVKKPGASVKVSCKASGYTFTSYYMHWVRQAPGQGLEWMGIINPSGASTSYAQKFQGRVTMTRDTSTSTVYMELSSLRSEDTAVYYCAREEYAPFSAEYFQFWGQGTLVTVSS VL: not shown | –
